Measured values published in PMC5038948, “The Role of Neutrophil Proteins on the Amyloid Beta-RAGE Axis” (PLoS ONE, 2016).
Read-outs that look alike come from different tables or passages of the source.

Columns and labels:
[1] = molecular target: T1, Aβ1–42 binding to RAGE (Homo sapiens, UniProt Q15109); assay: ELISA: competitive inhibition of Aβ1–42 binding to RAGE by neutrophil proteins added simultaneously
T1 construct: purchased R&D Systems Inc. (RAGE Fc chimera); Bachem (Aβ1–42)
Method: (§1) The plates were washed three times with PBS containing 0.05% tween (PBST), and then blocked in PBST containing 3% bovine serum albumin (BSA). Indicated proteins were added to the plate in 50 μL PBST containing 0.1% BSA and incubated at 37°C for 70 mins. Wells were washed four times with PBST, and then incubated with 50 μL of goat anti-RAGE primary antibody (0.5 μg/ml) or mouse anti-APP/Aβ antibody (0.5 μg/ml-1 μg/ml) for 1 h. After washing the wells four times with PBST, 50 μL of rabbit anti-goat at 0.16 μg/ml or donkey anti-mouse at 0.04–0.08 μg/ml secondary antibodies were added for 1 h at room temperature.
(§2) All statistics were performed using Graph Pad Prism 6 (GraphPad Software, La Jolla, CA). Data are represented as mean± SEM of results. […] Two-way analysis of variances (ANOVAs) were performed with Dunnett’s multiple comparison tests. […] Kruskal-Wallis tests with Dunn’s multiple comparison tests were used to analyze binding by Far-Western dot blotting (see figure legends 3 and 6 for details on multiple comparison tests). […] To obtain dissociation constants (Kd), half-maximal inhibitory concentrations (IC50), and maximum absorbance values, BSA was subtracted as background and values were fitted to a curve of nonlinear regression.

[2] = molecular target: T2, RAGE Fc chimera (Homo sapiens, UniProt Q15109); assay: ELISA: Aβ1–42 binding to RAGE after pre-incubation of Aβ1–42 with neutrophil proteins; parameters: purchased R&D Systems Inc. (RAGE Fc chimera); Bachem (Aβ1–42); details: for Kd: read-out: KD value for Aβ1–42 binding to RAGE
Method: as §1
In this set of experiments, the maxisorp plates were coated with RAGE Fc chimera (0.5 μg/well, 83.3 nM) overnight at 4°C.
as §2

[3] = molecular target: T3, Aβ1–42 (Homo sapiens, UniProt P05067); assay: Far-Western dot blot: binding of Aβ1–42 to spotted neutrophil proteins; details: Aβ1–42 […] (56 nM) with protease inhibitor cocktail; 1 μg spotted protein
T3 construct: Amyloid beta 1–42 (Aβ1–42), a known RAGE ligand; purchased Bachem (Torrance, CA)
Method: After spotting, membranes were rinsed with ultrapure water, and Ponceau S (Sigma Aldrich) was used to stain for spotted proteins. Ponceau S was rinsed off with ultrapure water, and membrane blots were blocked for 2 h at room temperature in PBST containing 3% BSA. […] Blots were washed three times with PBST for 10 min, and then incubated with either rabbit anti-RAGE primary antibody (0.8μg/ml) or mouse anti-APP/Aβ (0.25μg/ml) for 2 h at room temperature. Blots were washed three times with PBST for 10 min, and then incubated with donkey anti-rabbit or donkey anti-mouse secondary antibodies at 0.04μg/ml for 45 min at room temperature. Blots were washed three times with PBST. Enhanced chemiluminescent or SuperSignal West femto maximum sensitivity substrates (Pierce) were used to develop blots. Mean dot densities were quantified and normalized to ponceau S dot densities using Image J software (National Institutes of Health (NIH), Bethesda, MD).
Blots were incubated with rocking overnight at 4°C.
All statistics were performed using Graph Pad Prism 6 (GraphPad Software, La Jolla, CA). Data are represented as mean± SEM of results. […] To obtain dissociation constants (Kd), half-maximal inhibitory concentrations (IC50), and maximum absorbance values, BSA was subtracted as background and values were fitted to a curve of nonlinear regression.

[4] = molecular target: T2, RAGE Fc chimera; assay: Far-Western dot blot: binding of RAGE to spotted proteins ± GM-0111; parameters: purchased R&D Systems Inc. (Minneapolis, MN); details: 1 μg spotted protein (0.5 μg Aβ1–42)
Method: as §2

[5] = molecular target: T2, RAGE Fc chimera; assay: ELISA: binding of RAGE to coated neutrophil proteins; parameters: purchased R&D Systems Inc. (Minneapolis, MN); details: for Log binding (RAGE): wells coated 0.5 μg/well protein, log-transformed OD 492 nm, mean ± SEM
Method: as §1
Goat anti-RAGE primary antibody at 0.5 μg/ml was used to detect bound RAGE.
as §2

[6] = molecular target: T3, Aβ1–42; assay: ELISA: binding of Aβ1–42 to coated neutrophil proteins; details: for Log binding (Aβ1–42): 0.5 μg/well coated protein, with protease inhibitor cocktail, log OD 492 nm, mean ± SEM, n = 3
Method: as §1, §2

T2 sequence (Q15109 with tags, fused parts or gaps limits assumed): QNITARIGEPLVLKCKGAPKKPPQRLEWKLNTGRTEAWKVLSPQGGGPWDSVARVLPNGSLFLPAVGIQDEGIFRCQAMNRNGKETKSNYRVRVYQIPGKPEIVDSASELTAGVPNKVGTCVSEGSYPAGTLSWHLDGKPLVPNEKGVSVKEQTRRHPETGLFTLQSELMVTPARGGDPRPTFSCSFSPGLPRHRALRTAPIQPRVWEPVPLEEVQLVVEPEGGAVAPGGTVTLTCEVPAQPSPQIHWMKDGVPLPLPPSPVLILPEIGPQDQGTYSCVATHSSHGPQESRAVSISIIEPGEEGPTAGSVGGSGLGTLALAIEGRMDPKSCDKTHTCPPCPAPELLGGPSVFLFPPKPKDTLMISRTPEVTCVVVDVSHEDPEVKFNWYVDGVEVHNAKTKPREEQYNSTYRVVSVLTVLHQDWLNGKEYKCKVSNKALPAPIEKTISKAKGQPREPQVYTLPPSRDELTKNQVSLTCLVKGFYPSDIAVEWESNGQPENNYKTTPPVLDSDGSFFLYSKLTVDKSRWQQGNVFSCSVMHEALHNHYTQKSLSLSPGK
T1 sequence (Q15109 with tags, fused parts or gaps limits assumed): as above

B1: cationic antimicrobial protein of 37kDa (protein)
chain: IVGGRKARPRQFPFLASIQNQGRHFCGGALIHARFVMTAASCFQSQNPGVSTVVLGAYDLRRRERQSRQTFSISSMSENGYDPQQNLNDLMLLQLDREANLTSSVTILPLPLQNATVEAGTRCQVAGWGSQRSGGRLSRFPRFVNVTVTPEDQCRPNNVCTGVLTRRGGICNGDGGTPLVCEGLAHGVASFSLGPCGRGPDFFTRVALFRDWIDGVLNNPGPGPA
notes: neutrophil protein purified from human neutrophils (Athens Research & Technology)
- maximal inhibition of Aβ1–42 binding to RAGE in the absence of protease inhibitors ([1]; no protease inhibitors, highest dose of protein): complete
- inhibition of Aβ1–42 binding to RAGE in the presence of protease inhibitors ([1]; with protease inhibitor cocktail, Aβ1–42 11 nM): only partial
- maximum absorbance (MA) for Aβ1–42 binding to RAGE ([2]; Aβ1–42 pre-incubated with CAP37 500 ng/ml): 3.05
- maximum absorbance (MA) for Aβ1–42 binding to RAGE ([2]; Aβ1–42 pre-incubated with CAP37 1 μg/ml): 3.70
- maximum absorbance value for Aβ1–42 binding to RAGE ([2]; Aβ1–42 pre-incubated with CAP37 2 μg/ml): 3.27 OD 492 nm
- Kd ([2]; Aβ1–42 pre-incubated overnight 4°C with CAP37 500 ng/ml (21 nM)): 13.8 nM
- Kd ([2]; Aβ1–42 pre-incubated overnight 4°C with CAP37 1 μg/ml (42 nM)): 59.3 nM
- Kd ([2]; Aβ1–42 pre-incubated overnight 4°C with CAP37 2 μg/ml (83 nM)): 149 nM
- binding of Aβ1–42 (far-Western dot blot) [3]: strong binding
- binding of RAGE (far-Western dot blot) [4]: strong binding
- maximum absorbance value for RAGE binding ([5]; ELISA, BSA subtracted as background, nonlinear regression fit): 2.49
- Log binding (RAGE) ([5]; RAGE 0 nM (background)): -0.623
- Log binding (RAGE) ([5]; RAGE 0.83 nM): • 0.112±0.041 • p<0.0001
- Log binding (RAGE) ([5]; RAGE 1.67 nM): • 0.228±0.043 • p<0.0001
- Log binding (RAGE) ([5]; RAGE 3.33 nM): • 0.325±0.064 • p<0.0001
- Log binding (Aβ1–42) ([6]; Aβ1–42 0 nM (background)): • -0.907±0.139 • p = 0.005
- Log binding (Aβ1–42) ([6]; Aβ1–42 3.47 nM): • -0.556±0.047 • p<0.0001
- Log binding (Aβ1–42) ([6]; Aβ1–42 13.89 nM): • -0.138±0.047 • p<0.0001
- Log binding (Aβ1–42) ([6]; Aβ1–42 27.78 nM): • 0.137±0.043 • p<0.0001
- Log binding (Aβ1–42) ([6]; Aβ1–42 55.56 nM): • 0.304±0.039 • p<0.0001
- maximum absorbance value for Aβ1–42 binding ([6]; ELISA with protease inhibitors, BSA subtracted, nonlinear regression fit): 2.86
